Test results from paper PMC2119551.

Molecular target: aFGF receptors on the surface of NBT-II cells (rat (endogenous in NBT-II))
Test: radioligand binding

Human recombinant acidic FGF (from UniProt P05230 1-155) (ligand)
cpm bound (cells preincubated with 100 ng/ml pertussis toxin): 11800 cpm | cpm bound (cells preincubated with 10 ug/ml cholera toxin): 13600 cpm | cpm bound (cells preincubated with 100 uM forskolin): 14300 cpm | cpm bound (untreated cells): 12700 cpm
